Laboratory results as given in the RNAGym collection of RNA variant scans (doi:10.7554/elife.80360).

B1: Hairpin Ribozyme (parent)
chain: GUCCUCUUUCACGUGCGCGUGAAAGAGAGAAGUGAACCAGAGAAACACACGUUGUGGUAUAUUACCUGGUA

Variants of: B1
Assay: self-cleavage, relative activity (ratio to wild type); higher = more cleavage; co-transcriptional

Compared with U8A U63A, U9C A36C is higher in self-cleavage: 0.111 for the first, 0.491 for the second.

Going from U9A A61G to U9A A61U, the self-cleavage rises from 0.148 to 0.185.

Compared with U8C C10G, U9A C46A is lower in self-cleavage: 0.114 for the first, 0.0884 for the second.

Going from U8A G68U to U9G C65A, the self-cleavage rises from 0.172 to 0.609.

First: U9C G17A
Second: U9C G17C
The self-cleavage of the first is higher: 0.805 for the first, 0.647 for the second.

First: U8A G17C
Second: U9C C18G
The self-cleavage of the first is higher: 0.63 for the first, 0.56 for the second.

Compared with U8C A30U, U8C A30G is higher in self-cleavage: 0.0797 for the first, 0.144 for the second.

Compared with U9C A44G, U9C A28C is higher in self-cleavage: 0.19 for the first, 0.394 for the second.

First: U9A C66A
Second: U9C G32C
The self-cleavage of the first is higher: 0.166 for the first, 0.0478 for the second.

First: U9C G32A
Second: U8C A61C
The self-cleavage of the first is higher: 0.125 for the first, 0.0941 for the second.

Going from U8C A61U to U8C A47U, the self-cleavage rises from 0.182 to 0.224.

First: U8A U60G
Second: U8A U60A
The self-cleavage of the first is lower: 0.439 for the first, 0.755 for the second.

Compared with U9C A23G, U9C A23C is higher in self-cleavage: 0.814 for the first, 0.862 for the second.

Going from U9A A39C to U8C C12G, the self-cleavage falls from 0.423 to 0.229.

First: U8G G34C
Second: U8G G34A
The self-cleavage of the first is higher: 1.19 for the first, 0.767 for the second.

Going from U9C U58G to U9A G57A, the self-cleavage falls from 0.729 to 0.141.

First: U9A G57U
Second: U9A U55C
The self-cleavage of the first is higher: 0.182 for the first, 0.179 for the second.

Compared with U9A U55A, U8C G69U is lower in self-cleavage: 0.225 for the first, 0.186 for the second.

First: U8C G69A
Second: U8C G34A
The self-cleavage of the first is lower: 0.327 for the first, 1.18 for the second.

Going from U9C U60A to U8G C65A, the self-cleavage rises from 0.769 to 0.97.

Compared with U8G C65U, U8C C38U is lower in self-cleavage: 0.363 for the first, 0.245 for the second.

First: U8C C38G
Second: U9A A23C
The self-cleavage of the first is lower: 0.154 for the first, 0.501 for the second.

Compared with U9A C16G, U9C G56U is lower in self-cleavage: 0.511 for the first, 0.0494 for the second.

Compared with U9C G56C, U9A G21A is higher in self-cleavage: 0.158 for the first, 0.573 for the second.

Compared with U9A G21U, U9C U33G is lower in self-cleavage: 0.732 for the first, 0.154 for the second.

First: U9C U33A
Second: U9A C12U
The self-cleavage of the first is lower: 0.0961 for the first, 0.645 for the second.

Compared with U9C U62C, U8C U9C is higher in self-cleavage: 0.143 for the first, 0.275 for the second.

Compared with U8C U9A, U9C A30G is higher in self-cleavage: 0.266 for the first, 0.336 for the second.

Compared with U9G A59G, U9C G68C is lower in self-cleavage: 0.241 for the first, 0.108 for the second.

First: U8G G40C
Second: U8G G40A
The self-cleavage of the first is lower: 0.111 for the first, 0.264 for the second.

Going from U8G U62C to U8G U62A, the self-cleavage falls from 0.332 to 0.0946.

Going from U9G C12U to U8A G42A, the self-cleavage falls from 0.664 to 0.129.

Compared with U8C G19A, U9G A31G is higher in self-cleavage: 0.302 for the first, 0.549 for the second.

First: U9G A31C
Second: U8G A35G
The self-cleavage of the first is lower: 0.0438 for the first, 0.667 for the second.

First: U8G G54U
Second: U9A A47C
The self-cleavage of the first is higher: 0.37 for the first, 0.205 for the second.

First: U8C G21A
Second: U8C G21C
The self-cleavage of the first is higher: 0.264 for the first, 0.114 for the second.

First: U8G A44U
Second: U8G A44G
The self-cleavage of the first is higher: 0.184 for the first, 0.148 for the second.

Going from U8G A44C to U8G A22G, the self-cleavage rises from 0.139 to 0.676.

Compared with U9G A44G, U9G A44C is lower in self-cleavage: 0.129 for the first, 0.0667 for the second.

Compared with U8A U67G, U9C A45C is lower in self-cleavage: 0.237 for the first, 0.121 for the second.

Compared with U9C A45U, U9C G57U is higher in self-cleavage: 0.0912 for the first, 0.185 for the second.

Compared with U8A U62C, U9G G56C is lower in self-cleavage: 0.183 for the first, 0.0826 for the second.

First: U9G G56A
Second: U8A G15C
The self-cleavage of the first is lower: 0.18 for the first, 0.954 for the second.

First: U8A G40C
Second: U9G A64U
The self-cleavage of the first is lower: 0.156 for the first, 0.164 for the second.

First: U9A U53A
Second: U8G G19C
The self-cleavage of the first is higher: 0.768 for the first, 0.36 for the second.

Compared with U8G G25A, U8C C46A is lower in self-cleavage: 0.21 for the first, 0.102 for the second.

First: U9G A11C
Second: U8A G54C
The self-cleavage of the first is higher: 0.416 for the first, 0.284 for the second.

Compared with U9A A26G, U8G G17C is lower in self-cleavage: 0.825 for the first, 0.23 for the second.

Going from U9G C18G to U8C A44C, the self-cleavage falls from 0.801 to 0.131.

First: U8C A44U
Second: U8C A44G
The self-cleavage of the first is higher: 0.142 for the first, 0.0935 for the second.

First: U8C A49U
Second: U8C A49G
The self-cleavage of the first is lower: 0.244 for the first, 0.347 for the second.

Compared with U9A U70C, U9A U70A is lower in self-cleavage: 0.719 for the first, 0.581 for the second.

First: U9C A11G
Second: U9A C65A
The self-cleavage of the first is higher: 0.692 for the first, 0.69 for the second.

First: U8C U52A
Second: U8A G56C
The self-cleavage of the first is higher: 0.676 for the first, 0.196 for the second.

First: U8A G56U
Second: U9G C37U
The self-cleavage of the first is lower: 0.134 for the first, 0.5 for the second.

First: U8C C66G
Second: U8G C18A
The self-cleavage of the first is lower: 0.0616 for the first, 0.72 for the second.

First: U8G C18U
Second: U9C A26G
The self-cleavage of the first is lower: 0.678 for the first, 0.747 for the second.

First: U9C A26C
Second: U9C C65A
The self-cleavage of the first is lower: 0.426 for the first, 0.945 for the second.

Compared with U9C C65G, U9A G40C is lower in self-cleavage: 0.159 for the first, 0.133 for the second.

Compared with U8G G42A, U8G A45G is lower in self-cleavage: 0.156 for the first, 0.125 for the second.

Compared with U9C C16A, U9A G13A is lower in self-cleavage: 0.761 for the first, 0.471 for the second.

Going from U9C U52C to U9C U52G, the self-cleavage rises from 0.6 to 0.74.

Going from U8A G51C to U9C A61C, the self-cleavage falls from 0.602 to 0.183.

Compared with U9A A64G, U9A A64C is lower in self-cleavage: 0.284 for the first, 0.0749 for the second.

First: U9A U60C
Second: U8C A11U
The self-cleavage of the first is higher: 0.993 for the first, 0.252 for the second.

Compared with U8C G57A, U8C C65A is higher in self-cleavage: 0.119 for the first, 0.788 for the second.

Going from U9G A47U to U9G A47C, the self-cleavage rises from 0.0873 to 0.406.

First: U9C G69U
Second: U9C A43C
The self-cleavage of the first is higher: 0.256 for the first, 0.102 for the second.

Going from U9C A43G to U9A G34A, the self-cleavage rises from 0.0922 to 0.905.

Compared with U9A G34U, U9A G51A is lower in self-cleavage: 1.19 for the first, 0.688 for the second.

First: U9A G51C
Second: U9G A43C
The self-cleavage of the first is higher: 0.673 for the first, 0.0922 for the second.

First: U8C A43C
Second: U8G A36C
The self-cleavage of the first is lower: 0.126 for the first, 0.5 for the second.

First: U8A G27A
Second: U8C U63A
The self-cleavage of the first is higher: 0.236 for the first, 0.0901 for the second.

Compared with U8A G32A, U8A G32U is higher in self-cleavage: 0.141 for the first, 0.166 for the second.

Going from U9G A39U to U9G A39G, the self-cleavage rises from 0.158 to 0.206.

Going from U8C A45G to U9A A35C, the self-cleavage rises from 0.149 to 0.69.

Compared with U9A A31C, U9A A31U is lower in self-cleavage: 0.158 for the first, 0.0478 for the second.

Going from U8A U70A to U9C G29C, the self-cleavage falls from 0.665 to 0.1.

Compared with U9C G29U, U8G A26C is higher in self-cleavage: 0.179 for the first, 0.25 for the second.

First: U8G A26U
Second: U9C A35G
The self-cleavage of the first is lower: 0.281 for the first, 0.688 for the second.

Going from U9C A35C to U9C G15U, the self-cleavage rises from 0.602 to 0.879.

Compared with U9G G21A, U8G A61G is lower in self-cleavage: 0.554 for the first, 0.0213 for the second.

First: U8A G19A
Second: U8A G19C
The self-cleavage of the first is higher: 0.558 for the first, 0.553 for the second.

U8C G42A gave a self-cleavage of 0.177.
